# Data published in paper PMC9427764.
# Legend:
# [1] = Azi photo-cross-linking, immunoblot; conditions: glycan lost; control: untreated PD-L1-V76Azi cells
# [2] = Azi photo-cross-linking in HEK293T, anti-Flag blot; conditions: glycan lost; control: PD-L1-Azi without NQ mutations
substance,measurement,setting,value
"PD-L1: 5 µM tunicamycin, 24 h",oligomerisation,[1],decreases
PD-L1: 4NQ,oligomerisation,[2],decreases
